1 molecule from patent US20050260166 (Phytovation B.V., published 2005) can be followed below.

This data set has as its target NS1 (Influenza A virus (A/PR/8/34), UniProt P03496 P03496:1-230). The data set can be described thus: EMSA; 2 pM siRNA with 0-200 pM protein as printed; on ice 20 min; native 5% PAGE. Conditions: tags: N-terminal His tag (pQE31, Qiagen); label: 5'-33P; 19-bp duplex with 3' dTdT overhangs.

Chain of NS1 (P03496 whole entry, one chain of several): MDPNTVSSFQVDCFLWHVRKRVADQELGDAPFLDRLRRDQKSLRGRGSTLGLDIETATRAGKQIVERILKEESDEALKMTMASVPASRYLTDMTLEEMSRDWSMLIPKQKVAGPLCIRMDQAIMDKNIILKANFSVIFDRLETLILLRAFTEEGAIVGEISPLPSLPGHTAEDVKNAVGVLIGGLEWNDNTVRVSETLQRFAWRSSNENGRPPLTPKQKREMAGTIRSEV

B1: GL3 luciferase siRNA (dsRNA)
RNA 1: CUUACGCUGAGUACUUCGATT
RNA 2: UCGAAGUACUCAGCGUAAGTT
modifications: 3'-terminal TT of each strand are deoxynucleotides
Regarding B1, the binding result is given as “binds”.
